Target: T1, mouse ADAMTS7 (Mus musculus, UniProt Q68SA9)
T1 construct: Full-length mouse Adamts7 1-1857 (Uniprot Q68SA9, WT or E373Q catalytic mutant); expressed in transfected cells; host or cells: Human Coronary Artery Smooth Muscle Cells (HCA-SMC, Lonza), adenovirus 50 MOI
T1 sequence (Q68SA9 221-1657): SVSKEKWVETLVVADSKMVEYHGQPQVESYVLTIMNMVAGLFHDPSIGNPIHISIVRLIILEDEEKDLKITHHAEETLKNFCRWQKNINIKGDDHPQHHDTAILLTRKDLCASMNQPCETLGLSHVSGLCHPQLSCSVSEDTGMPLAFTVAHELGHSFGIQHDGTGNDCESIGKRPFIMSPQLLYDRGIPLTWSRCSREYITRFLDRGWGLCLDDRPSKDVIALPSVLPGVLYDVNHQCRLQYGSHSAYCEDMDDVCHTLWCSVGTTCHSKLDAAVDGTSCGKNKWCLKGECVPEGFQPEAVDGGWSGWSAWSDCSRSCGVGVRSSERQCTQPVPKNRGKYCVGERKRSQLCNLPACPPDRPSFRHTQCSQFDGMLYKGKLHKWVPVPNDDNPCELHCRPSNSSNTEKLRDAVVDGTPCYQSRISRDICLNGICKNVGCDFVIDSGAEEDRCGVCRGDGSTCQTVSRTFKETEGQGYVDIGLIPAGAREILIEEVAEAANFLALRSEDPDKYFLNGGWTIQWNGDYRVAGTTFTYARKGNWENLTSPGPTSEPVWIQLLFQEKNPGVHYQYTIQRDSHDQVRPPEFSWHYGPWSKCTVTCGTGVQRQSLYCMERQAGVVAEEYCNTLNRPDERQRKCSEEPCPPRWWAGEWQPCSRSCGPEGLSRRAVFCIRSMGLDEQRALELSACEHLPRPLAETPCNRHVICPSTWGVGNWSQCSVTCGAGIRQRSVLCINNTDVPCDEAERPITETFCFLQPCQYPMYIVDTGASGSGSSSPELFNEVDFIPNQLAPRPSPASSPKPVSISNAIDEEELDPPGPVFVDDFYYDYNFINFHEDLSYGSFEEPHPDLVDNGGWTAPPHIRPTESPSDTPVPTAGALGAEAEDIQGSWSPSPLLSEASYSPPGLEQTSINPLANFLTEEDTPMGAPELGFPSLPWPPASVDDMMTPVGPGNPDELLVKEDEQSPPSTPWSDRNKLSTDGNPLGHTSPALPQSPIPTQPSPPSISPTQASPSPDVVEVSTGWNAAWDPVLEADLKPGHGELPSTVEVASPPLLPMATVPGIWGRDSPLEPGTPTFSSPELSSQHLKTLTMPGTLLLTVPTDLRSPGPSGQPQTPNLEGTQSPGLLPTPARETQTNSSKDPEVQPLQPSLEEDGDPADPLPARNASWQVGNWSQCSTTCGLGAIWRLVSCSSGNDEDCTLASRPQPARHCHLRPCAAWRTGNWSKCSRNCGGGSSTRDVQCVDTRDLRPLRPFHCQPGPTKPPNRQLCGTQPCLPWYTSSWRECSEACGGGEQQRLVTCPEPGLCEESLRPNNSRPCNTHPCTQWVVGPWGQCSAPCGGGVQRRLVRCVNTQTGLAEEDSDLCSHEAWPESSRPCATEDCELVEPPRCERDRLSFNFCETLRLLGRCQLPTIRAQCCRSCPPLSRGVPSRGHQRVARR
Assay: TMT10 TAILS N-terminomics, HUVEC experiment (process replicates, trypsin/AspN digest)
Assay type: cell-based, human
Conditions: HUVEC TAILS HC; log fold change of N-terminal peptide, Ad-mADAMTS7 WT over Luc
Description: ADAMTS7 Expression, Cell Culture and Preparation of the Secreted Proteins—Full-length mouse Adamts7 1-1857 (Uniprot Q68SA9, WT or E373Q catalytic mutant) with a carboxyl terminal 3xFLAG tag was used to generate custom adenoviruses as previously described. Adeno-CMV-Luciferase (Ad-Luc) from Vector Biolabs was used as a negative control. Human Coronary Artery Smooth Muscle Cells (HCA-SMC) were obtained from Lonza and expanded in Lonza SmGM-2 media in 15 cm tissue culture plates. Twenty-four hours before media collection, near confluent plates were transduced with 50 MOI adenovirus and switched to Lonza Basal SM media with volumes of 20 ml per 15 cm plate. Expression of the Flag tagged ADAMTS7 was confirmed from the media using western blot and detected using the anti-Flag M2-HRP antibody (Sigma, A8592). Collected media was processed by adding protease inhibitors (1 mM EDTA and 1 mM PMSF) and clarified by 500 g×5 min spin at 4 C to pellet cell debris. Cell media supernatants were then passed through a 0.22 um filter and kept chilled. Processed media was then concentrated 50-100× using 3 kDa Centricon Plus-70 filter unit, spun at 3,500 g×60 min at 4 C. Approximately 10% of the processed, concentrated media was set aside for total secretome proteolytic analysis. The remaining 90% of the processed, concentrated media was buffer exchanged into 50 mM HEPES pH 8.0, 150 mM NaCl (2×50 ml) using the 3 kDa Centricon Plus-70 filter unit and concentrated to >2 mg/ml to serve as input for the TAILS experiment. Secretome and TAILS input samples were stored at −80° C.
For the first experiment, referred to as SMC1, 120 ml of media from 6×15 cm dishes was pooled from each condition (Luc, WT, EQ) and processed to produce three separate inputs for the TAILS experiment. Luc, WT and EQ inputs from the SMC1 experiment were each divided into triplicate 400 ug samples to generate technical replicate TAILS data. For the second experiment, referred to as SMC2, media was processed separately in triplicate for each condition (Luc1, Luc2, Luc3, WT1, WT2, WT3, EQ1, EQ2, EQ3) using 60 ml of media from 3×15 cm dishes for each process replicate. Inputs from the SMC2 experiment used process replicates of 300 ug each to generate TAILS data. The third experiment used input from cultured Human umbilical vein endothelial cells (HUVEC) from Lifeline Cell Technology grown in VascuLife Media and transduced in Lifeline Basal EC (+bFGF2 10 ng/ml). The HUVEC experiment used the same strategy as the SMC2 experiment, with 40 ml of media from 2×15 cm dishes for each process replicate and used 200 ug each to generate TAILS data. Inputs for process replicate experiments were restricted to the lowest concentration from the 9 parallel samples for SMC2 or HUVEC.
TMT10 isotopic labeling and negative selection of non-labeled peptides-Sample preparation was performed based on the TAILS protocol from the Overall lab with some modifications. From a single experiment, nine parallel protein samples in 50 mM HEPES pH 8.0, 150 mM NaCl were separately denatured with guanidinium chloride (Sigma, G4505) to reach a final concentration of 2.5M guanidinium chloride and 250 mM HEPES and incubated at 65° C. for 15 min. Reduction was achieved through addition of tris(2-carboxylethyl) phosphine (TCEP) at a final concentration of […] and incubated at 65° C. for 45 min. Alkylation reaction was performed with addition of iodoacetamide (IAA, Sigma, A3221) to a final concentration of 10 mM IAA for 15 min at room temperature in the dark. Following denaturation, reduction and alkylation steps, ten percent of each of the nine parallel protein samples was removed and combined to serve as a pooled reference. Isobaric tags were added to free amine groups using the TMT10plex Isobaric Mass Tagging Kit (ThermoFisher, 90113) with TMT channels randomly assigned to the nine samples and TMT 131 assigned to the pooled reference. […]

| Substance | logFC.mWT.over.Luc |
| --- | --- |
| AEBP1_37 (FLEGFLSELEPEPR; listed as Homo sapiens) | 3.77 |
| EFEMP1_124 (AVAGPEMQTGR; listed as Homo sapiens) | 2.92 |
| FBN1_29 (LEAGNVKETR; listed as Homo sapiens) | 3.57 |
| FN1_36 (MVQPQSPVAVSQSKPGCYDNGKHYQINQQWER; listed as Homo sapiens) | 2.98 |
| FN1_1656 (SSSPVTGYR; listed as Homo sapiens) | 1.56 |
| HSPG2_2331 (ANLAYPAGSTQPIR; listed as Homo sapiens) | 1.72 |
| IGFBP7_101 (AAGGPGVSGVCVCKSR; listed as Homo sapiens) | 1.86 |
| LOXL2_37 (FQQPAPEYHQPQAPANVAKIQLR; listed as Homo sapiens) | 2.82 |
| LTBP1_393 (LTATNFR; listed as Homo sapiens) | 3.14 |

Now from value to substance:

| logFC.mWT.over.Luc | Substance |
| --- | --- |
| 3.29 | FLNA_1285 (LTQTGGPHVKAR; listed as Homo sapiens) |
| 2.45 | FN1_40 (QSPVAVSQSKPGCYDNGKHYQINQQWER; listed as Homo sapiens) |
| 1.61 | FN1_886 (NQESTPVVIQQETTGTPR; listed as Homo sapiens) |
| 3.43 | FN1_1143 (LTPGVEYVYTIQVLR; listed as Homo sapiens) |
| 3.38 | LOX_124 (WFQAGYSTSR; listed as Homo sapiens) |
